For the assay, the target named is T1, MAMDC4 (UniProt Q63191 22-1216).
T1 construct: HEK293 cells also hold endogenous (human) MAMDC4, which the anti-MAMDC4 antibody may precipitate as well; also called Endotubin; AEGP; source: HEK293, transfected (overexpressed), in lysate
Put plainly: co-IP; HEK293 cells overexpressing MAMDC4, control or 50% Wnt3a conditioned media for 6hrs; NP-40 lysis buffer; lysates precipitated with anti-MAMDC4 (hybridoma supernatant) or control IgG on Protein G Dynabeads overnight at 4°C; immunoblot; input 1/50th of lysate. The conditions noted are these: partners not purified. Background: Immunoblotting shows a protein as a band on a membrane.

T1 sequence (Q63191 22-1216): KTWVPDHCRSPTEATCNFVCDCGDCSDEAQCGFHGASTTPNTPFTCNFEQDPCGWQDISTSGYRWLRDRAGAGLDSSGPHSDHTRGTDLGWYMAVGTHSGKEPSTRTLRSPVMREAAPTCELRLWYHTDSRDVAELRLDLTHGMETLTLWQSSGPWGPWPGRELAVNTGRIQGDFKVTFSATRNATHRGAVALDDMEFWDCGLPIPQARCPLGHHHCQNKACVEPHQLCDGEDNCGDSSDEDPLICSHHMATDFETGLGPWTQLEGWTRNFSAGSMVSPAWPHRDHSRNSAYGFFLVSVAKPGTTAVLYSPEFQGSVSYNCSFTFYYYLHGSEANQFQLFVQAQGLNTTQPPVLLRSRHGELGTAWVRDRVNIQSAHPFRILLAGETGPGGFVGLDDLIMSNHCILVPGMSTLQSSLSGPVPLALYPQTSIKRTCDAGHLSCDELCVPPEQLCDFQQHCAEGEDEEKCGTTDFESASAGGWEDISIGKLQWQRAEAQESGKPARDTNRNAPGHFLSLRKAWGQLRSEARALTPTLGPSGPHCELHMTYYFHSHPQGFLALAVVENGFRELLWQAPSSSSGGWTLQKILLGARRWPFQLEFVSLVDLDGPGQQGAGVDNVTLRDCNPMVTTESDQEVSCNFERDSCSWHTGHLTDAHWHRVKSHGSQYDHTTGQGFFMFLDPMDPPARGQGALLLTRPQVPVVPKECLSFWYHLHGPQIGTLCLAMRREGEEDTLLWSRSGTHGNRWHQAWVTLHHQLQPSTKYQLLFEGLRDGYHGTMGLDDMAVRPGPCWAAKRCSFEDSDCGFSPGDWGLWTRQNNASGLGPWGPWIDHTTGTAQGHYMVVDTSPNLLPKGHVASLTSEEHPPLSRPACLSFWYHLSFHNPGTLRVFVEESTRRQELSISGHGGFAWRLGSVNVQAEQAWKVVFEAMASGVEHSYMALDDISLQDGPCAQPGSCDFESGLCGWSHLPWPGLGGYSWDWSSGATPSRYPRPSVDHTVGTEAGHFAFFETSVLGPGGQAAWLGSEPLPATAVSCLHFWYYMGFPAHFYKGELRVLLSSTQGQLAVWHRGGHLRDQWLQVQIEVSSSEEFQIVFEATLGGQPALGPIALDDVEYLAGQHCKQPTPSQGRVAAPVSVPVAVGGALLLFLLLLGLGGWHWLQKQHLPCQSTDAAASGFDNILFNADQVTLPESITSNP

B1: LRP6 (receptor, human (endogenous in HEK293), UniProt O75581 20-1613, looked up)
chain: APLLLYANRRDLRLVDATNGKENATIVVGGLEDAAAVDFVFSHGLIYWSDVSEEAIKRTEFNKTESVQNVVVSGLLSPDGLACDWLGEKLYWTDSETNRIEVSNLDGSLRKVLFWQELDQPRAIALDPSSGFMYWTDWGEVPKIERAGMDGSSRFIIINSEIYWPNGLTLDYEEQKLYWADAKLNFIHKSNLDGTNRQAVVKGSLPHPFALTLFEDILYWTDWSTHSILACNKYTGEGLREIHSDIFSPMDIHAFSQQRQPNATNPCGIDNGGCSHLCLMSPVKPFYQCACPTGVKLLENGKTCKDGATELLLLARRTDLRRISLDTPDFTDIVLQLEDIRHAIAIDYDPVEGYIYWTDDEVRAIRRSFIDGSGSQFVVTAQIAHPDGIAVDWVARNLYWTDTGTDRIEVTRLNGTMRKILISEDLEEPRAIVLDPMVGYMYWTDWGEIPKIERAALDGSDRVVLVNTSLGWPNGLALDYDEGKIYWGDAKTDKIEVMNTDGTGRRVLVEDKIPHIFGFTLLGDYVYWTDWQRRSIERVHKRSAEREVIIDQLPDLMGLKATNVHRVIGSNPCAEENGGCSHLCLYRPQGLRCACPIGFELISDMKTCIVPEAFLLFSRRADIRRISLETNNNNVAIPLTGVKEASALDFDVTDNRIYWTDISLKTISRAFMNGSALEHVVEFGLDYPEGMAVDWLGKNLYWADTGTNRIEVSKLDGQHRQVLVWKDLDSPRALALDPAEGFMYWTEWGGKPKIDRAAMDGSERTTLVPNVGRANGLTIDYAKRRLYWTDLDTNLIESSNMLGLNREVIADDLPHPFGLTQYQDYIYWTDWSRRSIERANKTSGQNRTIIQGHLDYVMDILVFHSSRQSGWNECASSNGHCSHLCLAVPVGGFVCGCPAHYSLNADNRTCSAPTTFLLFSQKSAINRMVIDEQQSPDIILPIHSLRNVRAIDYDPLDKQLYWIDSRQNMIRKAQEDGSQGFTVVVSSVPSQNLEIQPYDLSIDIYSRYIYWTCEATNVINVTRLDGRSVGVVLKGEQDRPRAVVVNPEKGYMYFTNLQERSPKIERAALDGTEREVLFFSGLSKPIALALDSRLGKLFWADSDLRRIESSDLSGANRIVLEDSNILQPVGLTVFENWLYWIDKQQQMIEKIDMTGREGRTKVQARIAQLSDIHAVKELNLQEYRQHPCAQDNGGCSHICLVKGDGTTRCSCPMHLVLLQDELSCGEPPTCSPQQFTCFTGEIDCIPVAWRCDGFTECEDHSDELNCPVCSESQFQCASGQCIDGALRCNGDANCQDKSDEKNCEVLCLIDQFRCANGQCIGKHKKCDHNVDCSDKSDELDCYPTEEPAPQATNTVGSVIGVIVTIFVSGTVYFICQRMLCPRMKGDGETMTNDYVVHGPASVPLGYVPHPSSLSGSLPGMSRGKSMISSLSIMGGSSGPPYDRAHVTGASSSSSSSTKGTYFPAILNPPPSPATERSHYTMEFGYSSNSPSTHRSYSYRPYSYRHFAPPTTPCSTDVCDSDYAPSRRMTSVATAKGYTSDLNYDSEPVPPPPTPRSQYLSAEENYESCPPSPYTERSYSHHLYPPPPSPCTDSS
notes: LRP6, endogenous in HEK293 cells, detected with rabbit anti-LRP6 (CST 2560); also called total LRP6; source: endogenous, HEK293 lysate
For the molecule B1, the “ratio of signal from immunoprecipitation relative to input” value was ~1 ratio IP to input.

B2: phospho-LRP6 (Ser 1490) (receptor, human (endogenous in HEK293), UniProt O75581 20-1613, looked up)
chain: B1 chain
modifications: phosphoserine at 1490
notes: LRP6 phosphorylated at Ser 1490, endogenous in HEK293 cells, detected with rabbit anti-phospho-LRP6 (Ser 1490) (CST 2568); also called p-LRP6; source: endogenous, HEK293 lysate
Consider B2, for which the “ratio of signal from immunoprecipitation relative to input” value is ~1 ratio IP to input.

Source of the values: PMC11125477 (PLOS ONE, 2024).
